We go through five molecules from article PMC10364083, “Dimerization of European Robin Cryptochrome 4a” (The Journal of Physical Chemistry. B, 2023).

Where “and” joins values, the source holds several entries; their conditions need not be identical. Equal entries are not always repeated.

One assay has as its target T1, ErCry4a (Erithacus rubecula, UniProt A0A2I4SZI9).
T1 construct: full-length wild type (CTT residues 498-527), N-terminal 10x His-tag kept for native MS, expressed in E. coli; monomer with minor disulfide-linked dimer
T1 sequence (A0A2I4SZI9 1-527): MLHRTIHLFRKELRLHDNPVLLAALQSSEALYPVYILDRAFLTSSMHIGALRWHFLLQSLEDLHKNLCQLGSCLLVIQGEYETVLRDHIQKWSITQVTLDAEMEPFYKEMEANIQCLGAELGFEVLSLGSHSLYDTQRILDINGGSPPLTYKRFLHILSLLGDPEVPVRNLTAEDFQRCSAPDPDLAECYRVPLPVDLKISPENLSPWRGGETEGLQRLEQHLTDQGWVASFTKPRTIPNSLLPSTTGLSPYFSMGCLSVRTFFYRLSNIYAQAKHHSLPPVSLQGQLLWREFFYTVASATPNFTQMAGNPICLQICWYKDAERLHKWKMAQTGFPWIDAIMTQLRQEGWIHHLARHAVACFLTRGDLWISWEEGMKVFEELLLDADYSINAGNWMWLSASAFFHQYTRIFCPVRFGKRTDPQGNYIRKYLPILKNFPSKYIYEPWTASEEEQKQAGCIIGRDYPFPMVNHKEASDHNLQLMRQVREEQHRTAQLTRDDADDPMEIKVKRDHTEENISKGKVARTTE
In words: native mass spectrometry of holoprotein. Conditions: co-purified non-covalently bound FAD; 200 mM ammonium acetate, pH 8; monomer and dimer. The format is binding.

Assay [1] has as its target ErCry4a C317A mutant (European robin (Erithacus rubecula)). As to the kind of experiment: native MS; 200 mM ammonium acetate, pH 8; nanoflow electrospray, Q Exactive, positive ion mode; micromolar protein concentrations; His-tagged proteins; WT sample of Figure 3A shipped with 10 mM BME.
Assay [2] addresses ErCry4a C412A + C317A mutant (European robin (Erithacus rubecula)). The assay is described as above.
In assay [3] the target is ErCry4a C412A mutant (European robin (Erithacus rubecula)). The assay is described as above.
Assay [4] addresses European robin cryptochrome 4a (Erithacus rubecula Cry4a), wild type, with N-terminal 10x His-tag (European robin (Erithacus rubecula)). In words: mass photometry; 44 nM ErCry4a WT in 200 mM ammonium acetate, pH 8.3; sample shipped with 2 mM DTT; ONE-MP instrument.
Assay [5] shares this target. In words: native MS; 200 mM ammonium acetate, pH 8; nanoflow electrospray, Q Exactive, positive ion mode; micromolar protein concentrations; His-tagged proteins; WT sample of Figure 3A shipped with 10 mM BME.
Assay [6] shares this target. Described as above. This is another data set of the same source.

On to `Cc1cc2nc3c(=O)[nH]c(=O)nc-3n(C[C@H](O)[C@H](O)[C@H](O)COP(=O)(O)OP(=O)(O)OC[C@H]3O[C@@H](n4cnc5c(N)ncnc54)[C@H](O)[C@@H]3O)c2cc1C` [FAD], for which, on ErCry4a, the “native mass spectrometry of holoprotein” value was “the ErCry4a dimers bind FAD and have native MS charge-state distributions”.

Turning to ErCry4a C317A mutant (natural protein), the stoichiometry N in assay [1] is 2 and 3.

Turning to “ErCry4a C412A + C317A mutant (natural protein)”, the stoichiometry N in assay [2] was 2 and 3.

On to ErCry4a C412A mutant (natural protein), for which, in assay [3], the stoichiometry N was 2 and 3.

Molecule “European robin cryptochrome 4a (Erithacus rubecula Cry4a), wild type, with N-terminal 10x His-tag (natural protein)” displayed a percent of counts in the dimer peak in assay [4] of 11%. For the same molecule, the results for the stoichiometry N in assay [4], in assay [5] and in assay [6] were 2, 2 and 3, respectively.

As usually defined, the stoichiometry N is the number of molecules, sites or subunits per partner or assembly.
